± gives the standard error. This sample holds only a part of the variants without activity.
B1: glmS ribozyme (parent)
chain: AUAAAAGCGCCAGAACUACAGAAAUGUAGUUGACGAGGAGGAGGUUUAUCGAAUUUUCGGCGGAUGCCUCCAAA

Assays:
Conditions in all cases: with glucosamine-6-phosphate
glucosamine-6-phosphate [1] = variants of: B1; test: self-cleavage kobs at 640 uM GlcN6P; higher = faster cleavage; RNA array
How it was run: (§1)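 kcat and KM were obtained from weighted Michaelis–Menten fits across concentrations of kobs values. Those came from one- or two-exponential decay fits to per-tile medians normalised to baseline and to non-cleaving reference variants. The variants were barcoded ribozymes transcribed in situ by E. coli RNA polymerase on sequenced MiSeq chips and tracked through a hybridised Cy3 probe at 37 °C, with 40 μM to 10 mM glucosamine-6-phosphate in HEPES/KCl/Mg(OAc)2 buffer flowed in.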

glucosamine-6-phosphate [2] = variants of: B1; test: self-cleavage kobs at 2500 uM GlcN6P; higher = faster cleavage; RNA array
How it was run: as §1

glucosamine-6-phosphate [3] = variants of: B1; test: self-cleavage kobs at 10000 uM GlcN6P; higher = faster cleavage; RNA array
How it was run: as §1

Variant | self-cleavage kobs at 640 uM GlcN6P (glucosamine-6-phosphate [1]) [s⁻¹] | self-cleavage kobs at 2500 uM GlcN6P (glucosamine-6-phosphate [2]) [s⁻¹] | self-cleavage kobs at 10000 uM GlcN6P (glucosamine-6-phosphate [3]) [s⁻¹]
C16U G21U G35U C70A | 7.72e-05 ± 2.8e-05 |  | 
C10A C58U G63A A64U | < 1e-05 | < 1e-05 | 
G38C U46C G59U U65C C67A | < 1e-05 | < 1e-05 | 
A39G C50G C67U | 0.000571 ± 0.00018 | 0.000299 ± 0.00012 | 
A12U U56A C58G | 0.000155 ± 2.6e-05 | 0.000526 ± 9e-05 | 
G7C A64U G66U | < 1e-05 |  | 
G37C U46G C50U | < 1e-05 |  | < 1e-05
C8U C10U U45C | < 1e-05 | < 1e-05 | 
G9U U30G C68U | < 1e-05 |  | 
A14C C34A U46A | < 1e-05 |  | 
A6U C16U C61U C71U | < 1e-05 | < 1e-05 | 
A33U C34G G44A G51A | < 1e-05 | < 1e-05 | 
A14U A39C A64G | 0.000213 ± 5e-05 | 0.000771 ± 0.0002 | 
A6G C16G U57C | < 1e-05 |  | 
U45C U69G | 8.34e-05 ± 3.9e-05 |  | 
G7U U46C U65A | < 1e-05 | < 1e-05 | 
A48C G60C C71G | < 1e-05 | < 1e-05 | 
G38A G44A G51U U54G | < 1e-05 |  | 
G7A A48C U69G | < 1e-05 | < 1e-05 | 
C34U G38A A42G | < 1e-05 |  | 
C10U A12U C50U C70U | 0.000161 ± 6.4e-05 |  | 
A15C C58U C61A C70U | 6.5e-05 ± 2.2e-05 |  | 

Variant | self-cleavage kobs at 640 uM GlcN6P (glucosamine-6-phosphate [1]) [s⁻¹] | self-cleavage kobs at 2500 uM GlcN6P (glucosamine-6-phosphate [2]) [s⁻¹] | self-cleavage kobs at 10000 uM GlcN6P (glucosamine-6-phosphate [3]) [s⁻¹]
C8U G44U G60U | < 1e-05 |  | 
G38A A42C A64G | < 1e-05 | < 1e-05 | 
G13U G38U | < 1e-05 |  | 
A15U U30G U69A | 0.000116 ± 2.5e-05 | 0.000105 ± 2.9e-05 | 
G38U C58U C67U C70U C71A | 9.38e-05 ± 3.9e-05 |  | 
G29C G44C C71U | < 1e-05 |  | 
U30A U46G C67U | 0.000117 ± 3.4e-05 | 0.00027 ± 0.0001 | 
G13C A14U G40U G51C A53G U54A | < 1e-05 |  | 
C11A U30G C34U C50G | 0.000134 ± 2.8e-05 |  | 
U45C G63U C67U | < 1e-05 |  | 
C34U A36U G41C A53G | < 1e-05 |  | 
A52C A53G G60C U65C | < 1e-05 |  | 
G13A G51U | < 1e-05 | < 1e-05 | < 1e-05
A15U U31C G41U C70U | 3.6e-05 ± 1.4e-05 |  | 6.84e-05 ± 1.3e-05
G7U C10U C16A U30G A48C | < 1e-05 |  | 
A14C C50U U54A | < 1e-05 | < 1e-05 | 
C10G G66U C68G C71A | 8.79e-05 ± 3.1e-05 |  | 
A48C C70U C71G | < 1e-05 |  | 
G32U A52C C61U | < 1e-05 |  | 
U31G C70A | 0.000129 ± 2.6e-05 | 9.72e-05 ± 2.7e-05 | 0.000372 ± 0.00014
A6C C10G G41U | < 1e-05 | < 1e-05 | 
G60U C67G C68U C70G | < 1e-05 |  | 

Variant | self-cleavage kobs at 640 uM GlcN6P (glucosamine-6-phosphate [1]) [s⁻¹] | self-cleavage kobs at 2500 uM GlcN6P (glucosamine-6-phosphate [2]) [s⁻¹] | self-cleavage kobs at 10000 uM GlcN6P (glucosamine-6-phosphate [3]) [s⁻¹]
G40U G43U A48C U56A U65A | < 1e-05 |  | 
C11G G59C C67G | 0.000111 ± 4e-05 | 0.00023 ± 6.2e-05 | 
G35A G40U G44U U45C A52U | < 1e-05 |  | 
A39U C50G A52U G59U C67G | < 1e-05 |  | < 1e-05
A39G A48U U54G | 8.65e-05 ± 1.9e-05 | 0.000287 ± 7.3e-05 | 
C8U A12U A14U G44A C61U | < 1e-05 | < 1e-05 | 
G63C G66U | < 1e-05 | < 1e-05 | < 1e-05
C16U A36U G38U U46G | < 1e-05 | < 1e-05 | < 1e-05
A12C A14C G32A G44C C70G | < 1e-05 | < 1e-05 | 
G13C U56A U65A | < 1e-05 | < 1e-05 | 
A6C U54G C70U | 6.45e-05 ± 2.2e-05 |  | 
G13C G40U G60U | < 1e-05 |  | < 1e-05
A12U A15U C34G U47A | < 1e-05 |  | 
A42G C68G | 7.72e-05 ± 2.8e-05 | 0.000308 ± 7.3e-05 | 0.000128 ± 2.2e-05
C11A G38A G43U U54G | < 1e-05 |  | 
U30A G60U C71A | < 1e-05 | < 1e-05 | 
G35C G51U A64C | < 1e-05 | < 1e-05 | 
A42C G43U G44U G51U | < 1e-05 |  | 
G41C G44A C70G | 0.00128 ± 0.00037 | 0.00311 ± 0.00077 | 
C34G U45C G59U G62A G66A | < 1e-05 |  | 
G66U C68G C71A | 5.91e-05 ± 2.3e-05 |  | 
U31G G32A U54C | 0.000129 ± 3.8e-05 | 0.000702 ± 0.00023 | 

Reference: the supplement of paper PMC7125110
